In paper PMC5826319, “Control of the Nucleotide Cycle in Photoreceptor Cell Extracts by Retinal Degeneration Protein 3” (Frontiers in Molecular Neuroscience, 2018):

Experiments:
[1] = molecular target: T1, Guanylate kinase (GUK), mouse, isoform 1 (mouse, UniProt Q64520-2 1-219); test: back-scattering interferometry (BSI); free solution, label-free, nothing immobilised; RD3 (or TEV protease) 0 to 300 nM titrated into lysate supernatant of stable GUK HEK-293T cells (0.1 ug/ul) in 20 mM phosphate buffer pH 7.0, 150 mM NaCl, 0.005% Tween 20; overnight at 4°C; titration of lysate without GUK subtracted; apparent KD, Hill fit; conditions: one partner purified
T1 construct: it gives an expected theoretical mass of 22 kDa, which fits about 198 aa better than the printed 219 aa; also called recombinant GUK; GUK1
T1 sequence (looked up): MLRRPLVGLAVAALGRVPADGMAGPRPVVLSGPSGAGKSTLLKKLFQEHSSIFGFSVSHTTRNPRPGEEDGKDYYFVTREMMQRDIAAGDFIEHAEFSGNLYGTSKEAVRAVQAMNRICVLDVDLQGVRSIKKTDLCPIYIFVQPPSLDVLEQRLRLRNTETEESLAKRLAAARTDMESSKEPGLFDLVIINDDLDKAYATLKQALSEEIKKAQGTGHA

[2] = molecular target: the molecule itself; test: cross-linking; purified RD3 (0.1 ug) with 0.5 mM BS3 for 2 min at room temperature, stopped with Tris-HCl pH 7.5; SDS-PAGE and anti-RD3 immunoblot; monomer to dimer
[3] = molecular target: T2, Guanylate kinase (GUK) from porcine brain (porcine, UniProt P31006 1-198); test: cell-based or functional assay
T2 sequence (looked up): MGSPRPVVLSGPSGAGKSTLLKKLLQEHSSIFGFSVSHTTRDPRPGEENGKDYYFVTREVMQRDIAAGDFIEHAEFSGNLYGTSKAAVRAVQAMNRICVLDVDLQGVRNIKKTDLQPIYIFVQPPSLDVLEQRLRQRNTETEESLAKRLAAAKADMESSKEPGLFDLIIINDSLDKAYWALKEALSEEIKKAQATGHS

[4] = molecular target: T3, Guanylate kinase (GUK) in a soluble extract from bovine rod outer segments (bovine (endogenous in rod outer …, UniProt P46195 1-198)); test: cell-based or functional assay
T3 sequence (looked up): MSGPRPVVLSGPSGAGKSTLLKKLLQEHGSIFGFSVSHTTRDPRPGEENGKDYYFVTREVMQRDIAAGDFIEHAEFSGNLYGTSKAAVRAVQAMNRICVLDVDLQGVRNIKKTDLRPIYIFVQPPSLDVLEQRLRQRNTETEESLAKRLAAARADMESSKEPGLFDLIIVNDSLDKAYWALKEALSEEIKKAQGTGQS

B1: Retinal degeneration protein 3 (RD3), human, His6-tagged (natural protein, UniProt Q7Z3Z2 1-195, looked up)
chain: MSLISWLRWNEAPSRLSTRSPAEMVLETLMMELTGQMREAERQQRERSNAVRKVCTGVDYSWLASTPRSTYDLSPIERLQLEDVCVKIHPSYCGPAILRFRQLLAEQEPEVQEVSQLFRSVLQEVLERMKQEEEAHKLTRQWSLRPRGSLATFKTRARISPFASDIRTISEDVERDTPPPLRSWSMPEFRAPKAD
notes: The forward primer puts a few extra vector or primer residues before the first Met; also called RD3 - His6; His-tagged RD3
Kd [1]: ~100 nM | stoichiometry N [2]: 2 | guanylate kinase activity (5'-GMP to GDP, coupled spectrophotometric assay at 340 nm), RD3 0 to 3.5 uM [3]: ~10 fold | guanylate kinase activity (5'-GMP to GDP, coupled spectrophotometric assay at 340 nm), RD3 0 to 3.5 uM [4]: 2 fold
